Columns and labels:
[1] = target: T1, GAMYB (OsGAMYB) (Oryza sativa) (UniProt Q0JIC2); assay: cell_activity; conditions: GUS increase without GA versus empty Ubi1.cass effector
T1 sequence: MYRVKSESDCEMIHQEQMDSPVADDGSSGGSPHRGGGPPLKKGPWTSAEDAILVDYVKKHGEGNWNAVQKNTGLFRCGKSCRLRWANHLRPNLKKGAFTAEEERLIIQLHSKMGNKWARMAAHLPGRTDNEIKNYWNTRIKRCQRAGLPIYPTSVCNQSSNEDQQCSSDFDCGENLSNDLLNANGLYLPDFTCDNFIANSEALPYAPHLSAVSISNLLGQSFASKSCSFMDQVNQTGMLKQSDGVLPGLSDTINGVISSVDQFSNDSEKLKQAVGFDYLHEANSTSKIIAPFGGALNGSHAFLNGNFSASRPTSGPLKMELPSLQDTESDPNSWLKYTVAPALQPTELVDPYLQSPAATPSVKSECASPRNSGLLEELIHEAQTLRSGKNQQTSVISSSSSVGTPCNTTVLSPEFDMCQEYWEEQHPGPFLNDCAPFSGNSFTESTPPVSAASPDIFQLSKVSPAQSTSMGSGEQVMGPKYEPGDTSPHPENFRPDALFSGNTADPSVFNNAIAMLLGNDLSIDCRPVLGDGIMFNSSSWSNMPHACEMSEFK

[2] = target: T2, GAMYB (HvGAMYB), GST fusion (Hordeum vulgare); assay: EMSA; single mutation at 3' end of site; conditions: tags: N-terminal GST (pGEX), E. coli XL1-blue; label: 32P; 5' overhangs
T2 chain: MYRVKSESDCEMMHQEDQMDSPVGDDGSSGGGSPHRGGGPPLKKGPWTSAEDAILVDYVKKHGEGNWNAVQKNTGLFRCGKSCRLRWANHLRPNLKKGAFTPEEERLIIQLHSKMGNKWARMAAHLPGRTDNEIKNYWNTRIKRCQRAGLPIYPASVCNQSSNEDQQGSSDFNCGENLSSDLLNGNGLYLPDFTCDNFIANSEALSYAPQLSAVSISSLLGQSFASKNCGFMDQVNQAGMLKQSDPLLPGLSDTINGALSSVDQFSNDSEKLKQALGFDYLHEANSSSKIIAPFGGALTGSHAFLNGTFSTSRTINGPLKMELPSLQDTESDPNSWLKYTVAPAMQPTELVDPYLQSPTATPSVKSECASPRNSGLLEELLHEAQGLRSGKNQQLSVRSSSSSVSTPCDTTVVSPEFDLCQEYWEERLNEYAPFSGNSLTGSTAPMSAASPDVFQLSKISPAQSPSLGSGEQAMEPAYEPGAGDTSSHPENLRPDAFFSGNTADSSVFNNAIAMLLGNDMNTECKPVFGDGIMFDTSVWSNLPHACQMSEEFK
Description: (§1) After annealing the complementary oligonucleotides were 3' end-labelled using ^32P-dCTp and the Klenow fragment, and purified by electrophoresis on polyacrylamide gels. Bacterially-produced GAMYB fusion protein-oligonucleotide binding reactions were performed in 10 µl binding buffer (24 mM Hepes-KOH pH 7.9, 50 mM KCl, 0.5 mM EDTA, 0.5 mM dithiothreitol, 10% (v/v) glycerol) with 2 µg of poly(dI-dC)-poly(dI-dC), 150 ng of GAMYB fusion protein and 0.9 ng of a $^32$P-labelled oligonucleotide probe (40,000 cpm). After incubation at 20° C. for 10 min, the samples were run on a 6% (w/v) polyacrylamide gel containing 5% (v/v) glycerol, in 0.25 x Tris-borate-EDTA buffer at 140 volts. After electrophoresis, the gels were dried and autoradiographed.
(§2) To test whether GAMYB binds to the TAACAAA box in the high-pI α-amylase promoter, we performed gel-retardation experiments as described in Example 8. We looked for binding between an oligonucleotide probe (w) containing the amylase promoter sequence (−149 to −128), including the wild-type TAACAAA box and an affinity-purified glutathione-s-transferase (GST)-GAMYB fusion protein that had been expressed in Escherichia coil according to Example 7. […] Experiments were also performed using mutant oligonucleotide probes (m-1 to m-5).

[3] = target: T2, GAMYB (HvGAMYB), GST fusion; assay: EMSA; TAACAGAc; mutation had no effect on binding; conditions: tags: N-terminal GST (pGEX), E. coli XL1-blue; label: 32P; 5' overhangs
Description: as §1, §2

[4] = target: Glutathione-S-transferase (GST control) (UniProt P08515 P08515:1-218); assay: EMSA; GST alone control; conditions: tags: pGEX vector; label: 32P; 5' overhangs
Description: as §1, §2

[5] = target: T2, GAMYB (HvGAMYB), GST fusion; assay: EMSA; 24 mM Hepes-KOH pH 7.9, 50 mM KCl, poly(dI-dC), 20 C; 100-fold cold w abolishes complex; conditions: tags: N-terminal GST (pGEX), E. coli XL1-blue; label: 32P; 5' overhangs
Description: as §1, §2

[6] = target: T2, GAMYB (HvGAMYB), GST fusion; assay: EMSA; multi-bp mutation abolishes binding; conditions: tags: N-terminal GST (pGEX), E. coli XL1-blue; label: 32P; 5' overhangs
Description: as §1, §2

[7] = target: T2, GAMYB (HvGAMYB), GST fusion; assay: EMSA; single mutation TGACAAAc; conditions: tags: N-terminal GST (pGEX), E. coli XL1-blue; label: 32P; 5' overhangs
Description: as §1, §2

Glutathione-S-transferase (GST control), sequence (P08515 whole entry, one chain of several): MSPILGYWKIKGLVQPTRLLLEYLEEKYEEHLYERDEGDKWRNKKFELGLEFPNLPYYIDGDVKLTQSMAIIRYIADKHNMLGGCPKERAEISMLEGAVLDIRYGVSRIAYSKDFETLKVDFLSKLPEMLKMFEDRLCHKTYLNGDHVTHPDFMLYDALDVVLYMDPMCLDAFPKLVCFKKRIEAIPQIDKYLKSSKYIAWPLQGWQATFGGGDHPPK

Amy32b low-pI alpha-amylase promoter (mlo22)
activity [1]: 176 fold

B1: m-5 (dsDNA)
DNA 1: GGCCGATAACAAAATCCGG
DNA 2: CCGGATTTTGTTATCGGCC
binding result [2]: no binding

B2: m-3 (dsDNA)
DNA 1: GGCCGATAACAGACTCCGG
DNA 2: CCGGAGTCTGTTATCGGCC
binding result [3]: binds

B3: m-4 (dsDNA)
DNA 1: GGCCGATAACAAGCTCCGG
DNA 2: CCGGAGCTTGTTATCGGCC
binding result [2]: no binding

B4: w (dsDNA)
DNA 1: GGCCGATAACAAACTCCGG
DNA 2: CCGGAGTTTGTTATCGGCC
binding result [4]: no binding
binding result [5]: binds

B5: m-1 (dsDNA)
DNA 1: GGCCGACTCGAGACTCCGG
DNA 2: CCGGAGTCTCGAGTCGGCC
binding result [6]: no binding

B6: m-2 (dsDNA)
DNA 1: GGCCGATGACAAACTCCGG
DNA 2: CCGGAGTTTGTCATCGGCC
binding result [7]: no binding

— patent US6271440, “Plant regulatory proteins III” (The Australian National University)
